Results on two compounds are retold here after patent publication US12715905B2, “Methods of characterizing and purifying VEGF receptor fusion protein” (Regeneron Pharmaceuticals, Inc., priority 2023, dated 2026).

Where a SMILES comes first, the peptide text is derived from it. [ ]: non-standard residue; d: D form. The star is where a group is joined. Sta = CC(C)C[C@H](N)[C@@H](O)CC(=O)O; Isovaleryl = CC(C)CC(=O)*

Data set [1] deals with cathepsin D. Briefly: Protease inhibitor confirmation study: pepstatin A added to DSI samples, NR-1 band and Y/L clipping. In kind it is biochemical, Chinese hamster. As to conditions: DSI samples from both facilities, pepstatin A added at 37° C., assessed at day 3 and day 5. Here is the method: Once cathepsin D was identified to be a potential reason for the cleavage of aflibercept, a cathepsin D inhibitor was used to confirm the finding. AEBSF and Aprotinin bovine lung (serine protease inhibitors), E64 and Leupeptin hemisulfate (cysteine protease inhibitors) and pepstatin A (an aspartic protease inhibitor) were evaluated for their ability to inhibit activity of cathepsin D.
To the samples from lots from both the facilities containing DSI at t=0, pepstatin A was added at 37° C. and % of NR-1 band formed was assessed at day 3 and day 5.

Data set [2] relates to cathepsin D. Kind of data set: Stability observation in presence and absence of inhibitor pepstatin A (SE-UPLC HMW, CE-SDS NR1). In kind it is physicochemical, Chinese hamster. Here is the method:
Formulated Drug Substance with high (pre-optimization) and low (post-optimization) cathepsin D were blended to achieve various levels of cathD (FIG. 35B). These mixtures were prepared to compare to cathepsin D levels below, at, and above the highest known levels that were observed post-optimized IVT and had acceptable stability performance. The blended material was put on 25° C. stability observation in both the presence and absence of the inhibitor pepstatin A (FIG. 35A).
The Drug Substance Intermediate from two Lots was placed on stability observation at 25° C. in the presence (open triangle) and absence (closed triangle) of the inhibitor pepstatin A for 6 months (FIG. 36).
Samples were placed on 25° C. and 5° C. stability observation in the presence and absence of cathepsin D inhibitor. HMW formation was analyzed by SE-UPLC and NR1 formation was analyzed by CE-SDS.

Data set [3] concerns the target cathepsin D. Briefly: Octet HTX interaction analysis of aflibercept and cathepsin D. In kind it is binding, Chinese hamster. Here is the method:
FIG. 31 […], wherein cathepsin D was immobilized to the biosensor, while VEGF-Trap was the analyte (A), according to an exemplary embodiment.
Interaction analysis was carried out using OCTET HTX sensorgram.
Since cathepsin D can “piggy back” onto aflibercept during purification of aflibercept, in order to reduce the interactions, use of surfactants was implemented.
(In general: Biolayer interferometry detects binding as a change in optical thickness at a sensor tip.)
Target sequence in this assay (G3I4W7 entry or part of it F138E): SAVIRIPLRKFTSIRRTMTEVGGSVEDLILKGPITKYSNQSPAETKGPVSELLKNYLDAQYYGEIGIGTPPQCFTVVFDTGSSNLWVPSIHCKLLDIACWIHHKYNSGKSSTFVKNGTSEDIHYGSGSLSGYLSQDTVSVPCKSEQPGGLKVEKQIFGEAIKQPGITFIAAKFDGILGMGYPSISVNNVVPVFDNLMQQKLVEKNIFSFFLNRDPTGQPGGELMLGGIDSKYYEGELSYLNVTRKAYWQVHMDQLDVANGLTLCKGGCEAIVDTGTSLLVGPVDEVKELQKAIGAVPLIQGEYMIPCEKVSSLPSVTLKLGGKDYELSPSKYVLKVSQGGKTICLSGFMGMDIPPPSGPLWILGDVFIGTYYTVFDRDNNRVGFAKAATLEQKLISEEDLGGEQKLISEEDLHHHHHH

Data set [4] in a line: Mass spectrometry analysis of Y92/L93 clipping in stability lots. Particulars: high concentration (114.3 mg/mL) lot vs low concentration lots, accelerated stability. In kind it is physicochemical. The protocol:
The analysis was performed by denaturing SEC-MS, which can provide (partial) liquid chromatography separation between the intact receptor domain and NR1 species (with Fc removed) for the successful detection of the low levels of NR1 species. The DS and DSI sample from lots A and B were analyzed using a modified mass analysis (samples 1-7 are representative of both DS and DSI samples from both the lots). The modification made is possible to differentiate the peaks of the receptor domain of aflibercept and truncated aflibercept.
Mass spectrometry analysis further confirmed (3.4×) higher levels of Y92/L93 clipping for the unexpected aflibercept high concentration lot when compared to […] clipping observed for low concentration lots (FIG. 18). Increased NR1 due to cathepsin D cleavage at Y92/L93 of aflibercept was linked to increased aggregate formation (FIG. 19 and FIG. 20).

Data set [5] concerns cathepsin D. Kind of data set: Impact of pH on NR-1 band formation in DSI incubated at 37° C. In kind it is physicochemical, Chinese hamster. Here is the method: Testing of DSI samples from both facilities A and B for aflibercept production also show similar results.
The impact of pH is so significant that use of different buffers can also show a difference in the Y92L93 clipping observed during the production of aflibercept. For example, citric acid was employed at facility B to achieve a pH of 6.1 and sodium citrate was employed at facility A to achieve a pH of 6.2, despite other conditions remaining the same (i.e., incubation of DSI at 37° C. for 12 days, intermediate time point taken at 3rd and 6th day). While the difference in the pH is 0.1, the effect through cathepsin D based clipping is notable over time (data not shown).
All samples were incubated at 37° C. for 12 days, intermediate time point taken at 3rd and 6th day.
Target sequence in this assay (G3I4W7 65-408 limits assumed): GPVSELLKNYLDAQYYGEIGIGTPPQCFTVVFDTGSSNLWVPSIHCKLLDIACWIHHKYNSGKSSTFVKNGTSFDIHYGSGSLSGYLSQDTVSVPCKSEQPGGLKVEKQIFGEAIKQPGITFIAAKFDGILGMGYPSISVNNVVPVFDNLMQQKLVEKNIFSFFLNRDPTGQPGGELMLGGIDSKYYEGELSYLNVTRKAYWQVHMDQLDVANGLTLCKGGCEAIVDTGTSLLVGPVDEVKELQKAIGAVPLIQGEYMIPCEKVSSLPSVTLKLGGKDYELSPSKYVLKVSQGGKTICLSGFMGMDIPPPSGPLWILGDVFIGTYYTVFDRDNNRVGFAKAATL

Data set [6] is described as follows: Stability study of aflibercept lots at 5° C. and 25° C. (CE-SDS, SE-UPLC). The format is physicochemical. The protocol: This study investigated how a residual HCP can piggy-back through the aflibercept DSI manufacturing process.
Drug substance intermediate (DSI) lots containing aflibercept at two different concentrations (40 mg/ml and 114.3 mg/ml) were evaluated at 5° C. and 25° C.
Using the modified SEC purification, the high concentration DSI lot was purified downstream using SEC. […] (as mentioned in Example 10).
An earlier cut in time for the eluting peak was implemented for the SEC step for the higher concentration DSI lots (FIG. 28) resulting in increased clearance and subsequently lower levels of cathepsin D at FDS (FIG. 29). […] Accelerated stability (25′C for 6 months) was investigated. The cumulative increase in HMW (FIG. 33A) and R1 (FIG. 33B) was represented over that 6 months by calculation of the slope. […] The DSI was analyzed for stability at 25° C. for 6 months. The rate of NR1 species was calculated from T0 to T6 months and plotted against the cathepsin D value obtained by ELISA (FIG. 34A), Activity Assay (FIG. 34B) and Mass Spectrometry (FIG. 34C).

For data set [7], the system named is cathepsin D. Briefly: Cathepsin D spike-in into aflibercept DS, Y92L93 clipping / NR-1 band. The format is physicochemical, Chinese hamster. The protocol: Production of the Y92L93 clipping was attempted using cathepsin D. To a sample of aflibercept DS, cathepsin D was added and incubated at 37° C. at pH 6.1. Different concentrations of cathepsin D were evaluated, including 1 ppm, 2 ppm, 5 ppm, and 10 ppm.
Since the failure of cathepsin D to affect the truncation could be due to reaction conditions, the experiment was repeated at a lower pH since cathepsin D needs to be activated by lower pH for conformational switch to mature cathepsin D. Cathepsin-D is an aspartic protease that depends critically on protonation of its active site Asp residue. Along with Asp-protonation, lower pH also leads to conformational switch in mature cathepsin-D. See Briozzo P et al. (1988). Cancer Research. 48 (13): 3688-92.
To test the DS samples with the presence of activated cathepsin D, to a sample from DS at t=0, 100 ppm acidified cathepsin D was added at 37° C. and incubated for 5 hours.
The clipping activity was also observed at neutral condition when acidified […]) was added.
Target sequence in this assay (as listed by the source): as the sequence (G3I4W7 65-408 limits assumed) above

Setting [8] is: DSI from two lots, 25° C., 6 months, pepstatin A present vs absent.

In the case of `CC(C)CC(=O)N[C@H](C(=O)N[C@H](C(=O)N[C@@H](CC(C)C)[C@@H](O)CC(=O)N[C@@H](C)C(=O)N[C@@H](CC(C)C)[C@@H](O)CC(=O)O)C(C)C)C(C)C` [pepstatin A] (Isovaleryl-VV[Sta]A[Sta]-OH), in the data set on cathepsin D [1], the NR-1 band formation entry is on record as “NR-1 band increase stopped” and the Y/L clipping result is recorded as “Y/L clipping ceased”. Besides, in the data set with cathepsin D [2] (setting [8]), the “HMW formation (SE-UPLC)” value is given as “reduced HMW formation” and the “NR1 formation (CE-SDS)” value is “reduced NR1 formation”.

Turning to aflibercept, the “KD of aflibercept-cathepsin D interaction, change” value at cathepsin D [3] (about 0.003% PS20 (polysorbate 20)) was “about 4 fold”. For the same compound, in the data set with cathepsin D [3] (range of VEGF-Trap concentration), the “binding to Cathepsin D” value was “concentration dependent binding”. For the same compound, the “interaction between aflibercept and cathepsin D” value with cathepsin D [3] (range of buffer pH) is given as “increased with reducing buffer pH”. Further, the “levels of Y92/L93 clipping, high concentration lot compared to low concentration lots” value in data set [4] is 3.4 ×. Further, the NR-1 band formation entry is recorded as “significant NR-1 band” in the data set on cathepsin D [5] (DSI sample, pH 4.5 compared to pH 6.3) and “Effectively no NR-1 band is formed” in the data set with cathepsin D [5] (pH 6.45). The 92Y93L clipping result with cathepsin D [5] (pH increased to 6.45 by adding sodium citrate, 37° C. for 12 days) is given as “stopped the 92Y93L clipping”. For the same compound, the “rates of aggregation and fragmentation” value in data set [6] (114.3 mg/mL formulated drug substance (FDS) lot, accelerated stability 25° C. for 6 months) was “increased rates of aggregation and fragmentation”. Further, the fragmentation result in data set [6] (5° C. condition, through the 12-month time point) is “absence of fragmentation”. Also, the LMW levels entry in data set [6] (FDS lots after modified SEC purification (earlier cut), 25° C. at 3 months) was “in line with comparators”. Besides, the Y/L clipping entry in the data set on cathepsin D [7] (DS at t=0, 100 ppm acidified cathepsin D, 37° C., 5 hours) is listed as “led to Y/L clipping of aflibercept”; in the data set with cathepsin D [7] (aflibercept DS, 10 ppm Cathepsin D spiked in, pH 6.1, 37° C., 8 days), “Negligible”; in the data set on cathepsin D [7] (aflibercept DS, 100 ppm Cathepsin D spiked in, pH 6.1, 37° C., 8 days) it was < 1%. In addition, the “NR-1 band formation and Y/L cleavage” value in the data set with cathepsin D [7] (aflibercept DS, 0.5-20 ppm acidified cathepsin D, neutral condition, 7 days at 37° C.) is “correlation between spiked-in cathepsin D and NR-1 band formation, and Y/L cleavage”. Further, the “formation of NR1” value with cathepsin D [2] (FDS, 5° C., inactive cathepsin D (inhibitor and/or low temperature), up to 18 months) is given as “no formation of NR1”.
